Experimental data published in paper PMC7615972, “Cachd1 interacts with Wnt receptors and regulates neuronal asymmetry in the zebrafish brain” (Science (New York, N.Y.), 2024).

T1: purified mouse CACHD1 extracellular domain (CACHD1ECD) (mouse, UniProt Q6PDJ1 50-1109)
T1 construct: CACHD1, mouse, extracellular domain; Construct limits and tags are in the supplementary methods; also called mouse CACHD1ECD; source: purified recombinant
T1 sequence (looked up): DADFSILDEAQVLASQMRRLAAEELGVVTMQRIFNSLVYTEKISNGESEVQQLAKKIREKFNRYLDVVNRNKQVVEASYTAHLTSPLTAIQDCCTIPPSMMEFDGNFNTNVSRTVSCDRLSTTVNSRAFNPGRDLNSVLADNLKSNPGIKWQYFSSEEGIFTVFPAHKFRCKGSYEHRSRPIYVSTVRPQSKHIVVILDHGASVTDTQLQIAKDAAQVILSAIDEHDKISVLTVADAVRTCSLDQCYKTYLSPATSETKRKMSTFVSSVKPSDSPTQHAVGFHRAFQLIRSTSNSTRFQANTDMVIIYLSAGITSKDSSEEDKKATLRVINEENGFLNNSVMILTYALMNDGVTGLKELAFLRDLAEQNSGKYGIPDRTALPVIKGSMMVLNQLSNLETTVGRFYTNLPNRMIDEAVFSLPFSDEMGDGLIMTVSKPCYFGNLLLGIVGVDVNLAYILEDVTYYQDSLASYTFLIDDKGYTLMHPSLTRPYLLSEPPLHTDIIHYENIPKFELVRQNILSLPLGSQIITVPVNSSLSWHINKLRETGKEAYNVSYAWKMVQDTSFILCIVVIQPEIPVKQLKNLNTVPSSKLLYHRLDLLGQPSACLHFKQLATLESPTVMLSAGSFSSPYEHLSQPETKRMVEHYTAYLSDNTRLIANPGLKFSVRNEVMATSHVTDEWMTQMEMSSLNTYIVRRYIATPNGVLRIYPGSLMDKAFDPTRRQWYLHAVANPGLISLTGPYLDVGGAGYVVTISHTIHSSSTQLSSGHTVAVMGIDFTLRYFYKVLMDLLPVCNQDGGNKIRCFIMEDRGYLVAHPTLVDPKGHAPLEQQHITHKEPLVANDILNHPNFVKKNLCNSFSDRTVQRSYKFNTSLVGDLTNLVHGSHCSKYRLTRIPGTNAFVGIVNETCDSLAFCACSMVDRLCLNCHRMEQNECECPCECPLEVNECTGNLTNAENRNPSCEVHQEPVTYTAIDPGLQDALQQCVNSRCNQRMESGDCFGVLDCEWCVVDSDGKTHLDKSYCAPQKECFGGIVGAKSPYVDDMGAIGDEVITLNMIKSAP


Molecular target: T1, purified mouse CACHD1 extracellular …
Assay: SPR; mouse CACHD1ECD as analyte; FZD CRDs or LRP6 fragments immobilised; equilibrium dissociation constants
Conditions: both partners purified

Binder | Kd [nM]
human LRP6 membrane proximal fragment (LRP6_(P3E3P4E4)) (domain or fragment, LRP6, human, membrane proximal fragment P3E3P4E4; also called 3-4) VPEAFLLFSRRADIRRISLETNNNNVAIPLTGVKEASALDFDVTDNRIYWTDISLKTISRAFMNGSALEHVVEFGLDYPEGMAVDWLGKNLYWADTGTNRIEVSKLDGQHRQVLVWKDLDSPRALALDPAEGFMYWTEWGGKPKIDRAAMDGSERTTLVPNVGRANGLTIDYAKRRLYWTDLDTNLIESSNMLGLNREVIADDLPHPFGLTQYQDYIYWTDWSRRSIERANKTSGQNRTIIQGHLDYVMDILVFHSSRQSGWNECASSNGHCSHLCLAVPVGGFVCGCPAHYSLNADNRTCSAPTTFLLFSQKSAINRMVIDEQQSPDIILPIHSLRNVRAIDYDPLDKQLYWIDSRQNMIRKAQEDGSQGFTVVVSSVPSQNLEIQPYDLSIDIYSRYIYWTCEATNVINVTRLDGRSVGVVLKGEQDRPRAVVVNPEKGYMYFTNLQERSPKIERAALDGTEREVLFFSGLSKPIALALDSRLGKLFWADSDLRRIESSDLSGANRIVLEDSNILQPVGLTVFENWLYWIDKQQQMIEKIDMTGREGRTKVQARIAQLSDIHAVKELNLQEYRQHPCAQDNGGCSHICLVKGDGTTRCSCPMHLVLLQDELSCG | 170 ± 10
mouse FZD5 cysteine-rich domain (FZD5CRD) (domain or fragment, Frizzled-5, mouse, cysteine-rich domain (CRD); source: purified recombinant) ASKAPVCQEITVPMCRGIGYNLTHMPNQFNHDTQDEAGLEVHQFWPLVEIHCSPDLRFFLCSMYTPICLPDYHKPLPPCRSVCERAKAGCSPLMRQYGFAWPERMSCDRLPVLGGDAEVLCMDYNRSEAT | 480 ± 40
